Where “and” joins values, the source holds several entries; their conditions need not be identical. Equal entries are not always repeated. Bridge positions count the residues as written; N and C are the ends. Square brackets hold non-standard residues; d marks the D form. Ends that are not written are not given here. Phe(4-tBu) = CC(C)(C)c1ccc(C[C@H](N)C(=O)O)cc1; Bip = N[C@@H](Cc1ccc(-c2ccccc2)cc1)C(=O)O; 1Nal = N[C@@H](Cc1cccc2ccccc12)C(=O)O; 2Nal = N[C@@H](Cc1ccc2ccccc2c1)C(=O)O; NMeR = CN[C@@H](CCCNC(=N)N)C(=O)O; Tic = O=C(O)[C@@H]1Cc2ccccc2CN1; β3hE = N[C@@H](CCC(=O)O)CC(=O)O; NMeK = CN[C@@H](CCCCN)C(=O)O; Pen = CC(C)(S)[C@H](N)C(=O)O; dNMeK = CN[C@H](CCCCN)C(=O)O
Legend:
[1] = biological target: rh integrin α4β7 (R&D Systems #5397-A30) (human) (UniProt P13612); assay: competition ELISA vs MAdCAM-1
[2] = biological target: human α4β7 integrin on cells (human) (UniProt P13612); assay: PBMC memory T cell adhesion
[3] = biological target: α4β1 (R&D Systems #5668-A4) (UniProt P13612); assay: competition ELISA vs VCAM-1
[4] = biological target: human α4β7 integrin on cells (human) (UniProt P13612); assay: RPMI8866 adhesion to MAdCAM-1
[5] = biological target: mouse α4β7 integrin on TK1 cells (mouse) (UniProt Q00651); assay: TK1 adhesion to MAdCAM-1
[6] = biological target: T1, rh integrin α4β7 (R&D Systems #5397-A30) (human, UniProt P13612 34-970; P26010 20-723); assay: SPR, biotin peptide on streptavidin chip, soluble α4β7
T1 construct: Bought recombinant heterodimer, coated on a nickel plate; also called immobilized α4β7; soluble α4β7 integrin

[7] = biological target: human α4β7 integrin on cells (human) (UniProt P13612); assay: FACS, human whole blood, 1 mM MnCl2; Neutrophils
[8] = biological target: human α4β7 integrin on cells (human) (UniProt P13612); assay: FACS, human whole blood, 1 mM MnCl2; CD4 memory T cells
[9] = biological target: human α4β7 integrin on cells (human) (UniProt P13612); assay: FACS, human whole blood, 1 mM MnCl2; Monocytes
[10] = biological target: human α4β7 integrin on cells (human) (UniProt P13612); assay: FACS, human whole blood, 1 mM MnCl2; CD19+ B cells
[11] = biological target: human α4β7 integrin on cells (human) (UniProt P13612); assay: FACS, human whole blood, 1 mM MnCl2; Basophils
[12] = biological target: human α4β7 integrin on cells (human) (UniProt P13612); assay: FACS, human whole blood, 1 mM MnCl2; CD4 naïve T cells
[13] = biological target: rh integrin α4β7 (R&D Systems #5397-A30) (human) (UniProt P13612); assay: SPR, biotin antibody on streptavidin chip, soluble α4β7
[14] = biological target: human α4β7 integrin on cells (human) (UniProt P13612); assay: FACS, human whole blood, 1 mM MnCl2; CD8 naïve T cells
[15] = biological target: human α4β7 integrin on cells (human) (UniProt P13612); assay: FACS, human whole blood, 1 mM MnCl2; Eosinophils
[16] = biological target: human α4β7 integrin on cells (human) (UniProt P13612); assay: FACS, human whole blood, 1 mM MnCl2; CD8 memory T cells
[17] = biological target: human α4β7 integrin on cells (human) (UniProt P13612); assay: FACS, human whole blood, 1 mM MnCl2; NK cells CD16+ 56+
[18] = biological target: T1, rh integrin α4β7 (R&D Systems #5397-A30); assay: competition ELISA vs MAdCAM-1

mouse α4β7 integrin on TK1 cells (mouse), sequence (Q00651 41-1039, chain 1 of 2): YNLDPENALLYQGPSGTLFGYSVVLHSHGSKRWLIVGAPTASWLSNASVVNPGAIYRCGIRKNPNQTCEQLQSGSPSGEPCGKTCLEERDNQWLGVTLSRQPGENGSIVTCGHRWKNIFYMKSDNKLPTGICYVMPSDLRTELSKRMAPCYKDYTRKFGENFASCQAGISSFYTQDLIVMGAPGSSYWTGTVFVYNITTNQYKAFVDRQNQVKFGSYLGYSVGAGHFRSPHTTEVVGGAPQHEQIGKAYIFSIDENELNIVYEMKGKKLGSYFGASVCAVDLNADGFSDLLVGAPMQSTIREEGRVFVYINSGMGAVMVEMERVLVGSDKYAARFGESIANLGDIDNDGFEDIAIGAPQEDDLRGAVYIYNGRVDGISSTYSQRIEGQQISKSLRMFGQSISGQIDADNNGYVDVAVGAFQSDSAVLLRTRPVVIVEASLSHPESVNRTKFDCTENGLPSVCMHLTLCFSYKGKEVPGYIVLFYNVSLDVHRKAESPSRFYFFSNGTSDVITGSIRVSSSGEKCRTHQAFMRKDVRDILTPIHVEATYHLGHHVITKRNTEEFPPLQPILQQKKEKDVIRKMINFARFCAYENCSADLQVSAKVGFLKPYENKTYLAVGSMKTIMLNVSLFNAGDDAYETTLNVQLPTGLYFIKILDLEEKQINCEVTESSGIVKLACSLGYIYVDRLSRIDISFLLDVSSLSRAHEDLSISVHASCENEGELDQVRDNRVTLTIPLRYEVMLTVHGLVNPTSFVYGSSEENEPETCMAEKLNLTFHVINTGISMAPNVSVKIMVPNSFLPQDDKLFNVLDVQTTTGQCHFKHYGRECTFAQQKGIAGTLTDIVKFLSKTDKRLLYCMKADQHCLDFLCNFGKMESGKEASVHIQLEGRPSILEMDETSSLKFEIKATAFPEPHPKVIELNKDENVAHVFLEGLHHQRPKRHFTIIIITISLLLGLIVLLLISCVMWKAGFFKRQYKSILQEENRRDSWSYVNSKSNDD
mouse α4β7 integrin on TK1 cells (mouse), sequence (P26011 20-806, chain 2 of 2, further chain): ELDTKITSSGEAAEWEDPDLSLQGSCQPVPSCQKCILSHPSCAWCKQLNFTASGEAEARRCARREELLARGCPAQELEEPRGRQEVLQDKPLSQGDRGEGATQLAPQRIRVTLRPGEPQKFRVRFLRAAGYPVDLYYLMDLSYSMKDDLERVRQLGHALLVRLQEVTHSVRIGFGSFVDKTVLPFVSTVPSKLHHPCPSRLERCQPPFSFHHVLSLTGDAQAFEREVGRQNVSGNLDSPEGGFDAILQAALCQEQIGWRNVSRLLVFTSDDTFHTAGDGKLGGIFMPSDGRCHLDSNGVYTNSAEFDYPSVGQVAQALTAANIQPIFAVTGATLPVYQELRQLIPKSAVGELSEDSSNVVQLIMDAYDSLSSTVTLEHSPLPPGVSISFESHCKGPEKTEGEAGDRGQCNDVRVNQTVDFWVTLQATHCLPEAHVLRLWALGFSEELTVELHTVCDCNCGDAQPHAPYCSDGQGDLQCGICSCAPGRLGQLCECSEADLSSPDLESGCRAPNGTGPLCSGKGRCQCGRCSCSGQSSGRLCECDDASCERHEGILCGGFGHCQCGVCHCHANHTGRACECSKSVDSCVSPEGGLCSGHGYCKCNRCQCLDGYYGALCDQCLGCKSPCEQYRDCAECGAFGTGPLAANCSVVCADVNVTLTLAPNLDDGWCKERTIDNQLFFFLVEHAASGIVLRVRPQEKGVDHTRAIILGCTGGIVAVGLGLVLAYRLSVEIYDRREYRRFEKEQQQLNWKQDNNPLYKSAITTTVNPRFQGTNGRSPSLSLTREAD

Ac-[Pen][NMeR]SDTL[Pen][1Nal][β3hE][NMeK]-NH2 (disulfide 1-7 (inferred); also: dimer via DIG linker) [SEQ ID NO: 142]
IC50 [1]: < 10 nM
IC50 [2]: > 50 nM
IC50 [3]: > 500 nM
IC50 [4]: < 10 nM

Ac-[Pen][NMeR]SDTL[Pen][2Nal]E[dNMeK]-NH2 (disulfide 1-7; also: dimer via DIG) [SEQ ID NO: 41]
IC50 [1]: < 10 nM
IC50 [3]: > 100 nM
IC50 [4]: < 10 nM

Ac-[Pen][NMeR]SDTL[Pen][1Nal]E[dK]-NH2 (disulfide 1-7; also: dimer via DIG) [SEQ ID NO: 24]
IC50 [1]: < 10 nM
IC50 [3]: > 100 nM
IC50 [4]: < 10 nM

B1: Peptide 210 (peptide)
peptide: Ac-[Pen][NMeR]SDTL[Pen][2Nal]E[dK]-NH2
modifications: disulfide 1-7
SMILES: CC(=O)N[C@@H]1C(=O)N(C)[C@@H](CCCNC(=N)N)C(=O)N[C@@H](CO)C(=O)N[C@@H](CC(=O)O)C(=O)N[C@@H]([C@@H](C)O)C(=O)N[C@@H](CC(C)C)C(=O)N[C@H](C(=O)N[C@@H](Cc2ccc3ccccc3c2)C(=O)N[C@@H](CCC(=O)O)C(=O)N[C@H](CCCCN)C(N)=O)C(C)(C)SSC1(C)C
IC50 [1]: 11 nM
IC50 [2]: 517 nM
IC50 [3]: 200 nM
IC50 [5]: 60 nM
IC50 [4]: 40 nM

Ac-[Pen][NMeR]SDTL[Pen][Bip][β3hE][NMeK]-NH2 (disulfide 1-7 (inferred); also: dimer via DIG linker) [SEQ ID NO: 150]
IC50 [1]: < 10 nM
IC50 [3]: > 1000 nM
IC50 [5]: < 10 nM
IC50 [4]: < 10 nM

Ac-[Pen][NMeR]SDTL[Pen][Bip]E[dK]-NH2 (disulfide 1-7 (inferred); also: homodimer via DIG) [SEQ ID NO: 134]
IC50 [1]: < 10 nM
IC50 [3]: > 100 nM
IC50 [4]: < 10 nM

B2: Peptide X-biotin (peptide)
peptide: Ac-[Pen][NMeR]SDTL[Pen][Phe(4-tBu)][β3hE][dK]
modifications: disulfide 1-7 (inferred); also: biotin attached via PEG linker, site not given here, dimer of two subunits joined by DIG linker, as Peptide X
half-life for dissociation [6]: 11.1 h and ~11 h

Ac-[Pen][NMeR]SDTL[Pen][2Nal][dE][dK]-NH2 (disulfide 1-7; also: dimer via DIG) [SEQ ID NO: 33]
IC50 [1]: < 10 nM
IC50 [3]: > 100 nM
IC50 [4]: > 10 nM

Ac-[Pen][NMeR]SDTL[Pen][Tic][β3hE]-NH2 (disulfide 1-7 (inferred)) [SEQ ID NO: 154]
IC50 [3]: > 1000 nM
IC50 [5]: > 1000 nM
IC50 [4]: > 100 nM

Ac-[Pen][NMeR]SDTL[Pen][1Nal][dE][dK]-NH2 (disulfide 1-7; also: dimer via DIG) [SEQ ID NO: 32]
IC50 [1]: < 10 nM
IC50 [3]: > 100 nM
IC50 [4]: > 10 nM

Ac-[Pen][NMeR]SDTL[Pen][1Nal][dE][dNMeK]-NH2 (disulfide 1-7; also: dimer via DIG) [SEQ ID NO: 38]
IC50 [1]: < 10 nM
IC50 [3]: > 100 nM
IC50 [4]: < 10 nM

Ac-[Pen][NMeR]SDTL[Pen][2Nal][β3hE][dK]-NH2 (disulfide 1-7 (inferred); also: homodimer via DIG) [SEQ ID NO: 137]
IC50 [1]: < 10 nM
IC50 [3]: > 1000 nM
IC50 [4]: < 10 nM

B3: Vedolizumab-biotin (antibody, INN chains, looked up, V domains shown)
VH: QVQLVQSGAEVKKPGASVKVSCKGSGYTFTSYWMHWVRQAPGQRLEWIGEIDPSESNTNYNQKFKGRVTLTVDISASTAYMELSSLRSEDTAVYYCARGGYDGWDYAIDYWGQGTLVTVSS
VL: DVVMTQSPLSLPVTPGEPASISCRSSQSLAKSYGNTYLSWYLQKPGQSPQLLIYGISNRFSGVPDRFSGSGSGTDFTLKISRVEAEDVGVYYCLQGTHQPYTFGQGTKVEIKR
modifications: biotin label
Percent positive staining [7]: 0.45%
Percent positive staining [8]: 22%
Percent positive staining [9]: 7%
Percent positive staining [10]: 85%
Percent positive staining [11]: 86%
Percent positive staining [12]: 55%
Half-life for dissociation [13]: 0.717 h
Kd [13]: 59.5 nM
koff [13]: 0.000266 s⁻¹
kon [13]: 4470 M⁻¹ s⁻¹
Percent positive staining [14]: 53%
Percent positive staining [15]: 91%
Percent positive staining [16]: 36%
Percent positive staining [17]: 42%

Ac-[Pen][NMeR]SDTL[Pen][2Nal][β3hE]-NH2 (disulfide 1-7 (inferred)) [SEQ ID NO: 155]
IC50 [3]: > 1000 nM
IC50 [5]: > 25 nM
IC50 [4]: > 25 nM

Ac-[Pen][NMeR]SDTL[Pen][1Nal]E[dNMeK]-NH2 (disulfide 1-7; also: dimer via DIG) [SEQ ID NO: 44]
IC50 [1]: < 10 nM
IC50 [3]: > 100 nM
IC50 [5]: < 10 nM
IC50 [4]: < 10 nM

Ac-[Pen][NMeR]S[Prop acid]TL[Pen]WE[dK]-NH2 (disulfide 1-7) [SEQ ID NO: 47]
IC50 [18]: > 1000 nM

Ac-[Pen][NMeR]SDTL[Pen][2Nal]E[dK]-NH2 (disulfide 1-7; also: dimer via DIG, attachment site not given here) [Peptide 212]
IC50 [1]: 2 nM
IC50 [3]: 70 nM
IC50 [5]: 2.5 nM
IC50 [4]: 2.5 nM
